Assays:
[1] = tested on: patients with geographic atrophy (GA) secondary to age-related macular degeneration (AMD); assay: DERBY Phase 3 study: safety
Protocol: (§1) All randomized subjects returned every month to the clinical site for assessments and additional pegcetacoplan or sham injections according to their randomization scheme until Month 12. From Month 12 onwards, subjects return to the clinical site based on their randomized treatment schedule (monthly or EOM) and follow the treatment regimen and assessments outlined in the Visit Schedule until Month 24. Safety was assessed throughout the study by a number of evaluations including: monitoring of AEs, preinjection and postinjection monitoring, blood and urine samples collected, physical examination, vital signs, and follow-up phone calls. Blood samples were also be collected for anti-therapeutic antibodies, genotyping, and clinical repository (if the subject consented to this portion).
(§2) The Safety set consisted of all subjects randomized who received at least one injection of pegcetacoplan or sham. Subjects were analyzed according to the actual treatment received. […] This population was used for all safety analyses.

[2] = tested on: patients with geographic atrophy (GA) secondary to age-related macular degeneration (AMD); assay: DERBY and OAKS combined: safety; conditions: for CNV type on FA at eAMD study visit: Active leakage with low likelihood of CNV / CNV type on FA at eAMD study visit: Classic / CNV type on FA at eAMD study visit: Classic + occult / CNV type on FA at eAMD study visit: Occult / investigator-reported events of eAMD, double-layer sign (DLS) present in the study eye / investigator-reported events of eAMD, CNV present in the fellow eye / investigator-reported events of eAMD, CNV absent in the fellow eye / investigator-reported events of eAMD, double-layer sign (DLS) absent in the study eye: through month 18; for Investigator-determined new-onset eAMD in fellow eyes: through 18 months; for combined rate of new-onset exudations: month 24
Protocol: as §1, §2

[3] = combined, PEOM (every other month), N=21 events
[4] = combined, PM (monthly), N=26 events
[5] = combined, between months 18 and 24

## Poly(oxy-1,2-ethanediyl), α-hydro-ω-hydroxy-, 15,15′-diester with N-acetyl-L-isoleucyl-L-cysteinyl-L-valyl-1-methyl-L-tryptophyl-L-glutaminyl-L-α-aspartyl-L-tryptophylglycyl-L-alanyl-L-histidyl-L-arginyl-L-cysteinyl-L-threonyl-2-[2-(2-aminoethoxy) ethoxy]acetyl-N^6-carboxy-L-lysinamide cyclic (2->12)-(disulfide) [pegcetacoplan]
[1]; PM (monthly), 12 months
  All TEAEs, Total events, M: 708
  All TEAEs, patients: 158 (76.7%) n (%)
  Cases of MNV (FA) detected by reading center but not reported by Investigator as AE: 0
  Non-ocular TEAEs, Patients: 127 (61.7%) n (%)
  Non-ocular TEAEs, events M: 396
  Ocular TEAE in study eye Vitreous floaters, events M: 22
  Ocular TEAE in study eye Vitreous floaters, patients: 18 (8.7%) n (%)
  Ocular TEAEs in study eye, Patients: 100 (48.5%) n (%)
  Ocular TEAEs in study eye, events M: 227
  Serious ocular TEAE Dry AMD, patients: 0 n (%)
  Serious ocular TEAE Endophthalmitis, patients: 0 n (%)
  Serious ocular TEAE Macular hole, patients: 0 n (%)
  Serious ocular TEAE Optic ischemic neuropathy, patients: 0 n (%)
  Serious ocular TEAE Papilledema, patients: 0 n (%)
  Serious ocular TEAE Retinal detachment, patients: 0 n (%)
  Serious ocular TEAE Vitritis, events M: 1
  Serious ocular TEAE Vitritis, patients: 1 (0.5%) n (%)
  Serious ocular TEAEs in the study eye, events M: 1
  Serious ocular TEAEs in the study eye, patients: 1 (0.5%) n (%)
  Sum of investigator-determined eAMD and reading center cases not reported by investigators: (6.8%)
[1]; PM (monthly), 12 months, count
  Sum of investigator-determined eAMD and reading center cases not reported by investigators: 14
[1]; PM (monthly), 18 months
  All TEAEs, Total events, M: 993
  All TEAEs, patients: 170 (82.5%) n (%)
  Non-ocular TEAEs, M: 567
  Non-ocular TEAEs, Patients: 148 (71.8%) n (%)
  Ocular TEAEs in study eye, M: 308
  Ocular TEAEs in study eye, Patients: 118 (57.3%) n (%)
[1]; PM (monthly), N=206
  Discontinued study prior to Month 12, reason Adverse Event: 1 (0.5%) n (%)
  Discontinued study prior to Month 12, reason Death: 5 (2.4%) n (%)
  Discontinued study prior to Month 18, reason Adverse event: 3 (1.5%) n (%)
  Discontinued study prior to Month 18, reason Death: 6 (2.9%) n (%)
[1]; PM (monthly), through 18 months, 167 patients without baseline fellow eye CNV
  Patients with new onset fellow eye eAMD: 4 (2.4%) n (%)
[1]; every other month, month 18, 11/208 patients
  patients with study eye investigator-determined new-onset exudative AMD: 5.3%
[1]; monthly, month 18, 24/206 patients
  patients with study eye investigator-determined new-onset exudative AMD: 11.7%
[2]; both Phase 3 studies, 12 months
  tolerability: well tolerated
[2]; combined, 12 months
  events of retinal vasculitis or retinal vein occlusion: No events
[2]; combined, 12 months, thirteen events
  intraocular inflammation events: 0.21 % per injection
[2]; [3]
  CNV type on FA at eAMD study visit: Active leakage with low likelihood of CNV: 0 n (%)
  CNV type on FA at eAMD study visit: Classic: 1 (4,8%) n (%)
  CNV type on FA at eAMD study visit: Classic + occult: 0 n (%)
  CNV type on FA at eAMD study visit: Occult: 20 (95.2%) n (%)
[2]; combined, PEOM (every other month), 339 patients without baseline fellow eye CNV
  Investigator-determined new-onset eAMD in fellow eyes: 13 (3.8%) n (%)
[2]; [4]
  CNV type on FA at eAMD study visit: Active leakage with low likelihood of CNV: 3 (11.5%) n (%)
  CNV type on FA at eAMD study visit: Classic: 1 (3.8%) n (%)
  CNV type on FA at eAMD study visit: Classic + occult: 0 n (%)
  CNV type on FA at eAMD study visit: Occult: 22 (84.6%) n (%)
[2]; combined, PM (monthly), 335 patients without baseline fellow eye CNV
  Investigator-determined new-onset eAMD in fellow eyes: 12 (3.6%) n (%)
[2]; [5]
  cases of endophthalmitis: No cases
  serious adverse events of ischemic optic neuropathy: no serious adverse events
[2]; combined, every other month, 12 months
  pooled rate of new-onset exudations (investigator-determined eAMD), patients: 4.1%
[2]; combined, every other month, month 18, 26/420 patients
  rate of new-onset exudations: 6.2%
[2]; combined, every other month
  combined rate of new-onset exudations: 6.7%
[2]; combined, every other month, 6/73 patients
  investigator-reported events of eAMD, double-layer sign (DLS) present in the study eye: 8.2%
[2]; combined, every other month, 8/81 patients
  investigator-reported events of eAMD, CNV present in the fellow eye: 9.9%
[2]; combined, every other month, 18/338 patients
  investigator-reported events of eAMD, CNV absent in the fellow eye: 5.3%
[2]; combined, every other month, 20/345 patients
  investigator-reported events of eAMD, double-layer sign (DLS) absent in the study eye: 5.8%
[2]; combined, month 18
  events of retinal vasculitis or retinal vein occlusion: No events
  rate of intraocular inflammation: 0.23 % per injection
[2]; combined, monthly, 12 months
  pooled rate of new-onset exudations (investigator-determined eAMD), patients: 6.0%
[2]; combined, monthly, month 18, 40/419 patients
  rate of new-onset exudations: 9.5%
[2]; combined, monthly
  combined rate of new-onset exudations: 11.9%
[2]; combined, monthly, 8/79 patients
  investigator-reported events of eAMD, double-layer sign (DLS) present in the study eye: 10.1%
[2]; combined, monthly, 8/84 patients
  investigator-reported events of eAMD, CNV present in the fellow eye: 9.5%
[2]; combined, monthly, 32/335 patients
  investigator-reported events of eAMD, CNV absent in the fellow eye: 9.6%
[2]; combined, monthly, 32/336 patients
  investigator-reported events of eAMD, double-layer sign (DLS) absent in the study eye: 9.5%
[2]; combined, over 24 months
  events of occlusive vasculitis or retinitis: No events
  rate of intraocular inflammation: 0.24 % per injection
